Patent US20200397913A1, “AXL-SPECIFIC ANTIBODY-DRUG CONJUGATES FOR CANCER TREATMENT” (GENMAB A/S, priority 2015, published 2020)
Positions count from the first letter of the chain named.

Assays:
SKMEL28R cells = assay: Melanoma cell line viability assay (CellTiter-Glo); assay type: cell-based, human; settings: ADC 1×10^−4 to 10 μg/mL, 5 days
A375R cells = assay: Melanoma cell line viability assay (CellTiter-Glo); assay type: cell-based, human; settings: ADC 1×10^−4 to 10 μg/mL, 5 days
M019R cells = assay: Patient-derived low passage melanoma culture viability assay; assay type: cell-based, human; settings: ADC 8 days
SKMEL147 cells = assay: Melanoma cell line viability assay (CellTiter-Glo); assay type: cell-based, human; settings: ADC 1×10^−4 to 10 μg/mL, 5 days
A875 cells = assay: Melanoma cell line viability assay (CellTiter-Glo); assay type: cell-based, human; settings: ADC 1×10^−4 to 10 μg/mL, 5 days
SKMEL28 cells = assay: Melanoma cell line viability assay (CellTiter-Glo); assay type: cell-based, human; settings: ADC 1×10^−4 to 10 μg/mL, 5 days
M016 cells = assay: Patient-derived low passage melanoma culture viability assay; assay type: cell-based, human; settings: ADC 8 days
M082 cells = assay: as above; assay type: cell-based, human; settings: ADC 8 days
PC9-ER cells = assay: In vitro cytotoxicity assay, erlotinib-resistant NSCLC cell line; assay type: cell-based, human
CEXF 773 tumors = assay: Cervix carcinoma PDX model CEXF 773; assay type: in vivo, NMRI nu/nu mice; settings: 4 mg/kg i.v. on day 0 and day 7
Description: The anti-tumor activity of IgG1-AXL-183-vcMMAE and IgG1-AXL-726-vcMMAE was evaluated in the patient derived cervix carcinoma xenograft CEXF 773 model in NMRI nu/nu mice (Harlan, Netherlands). Experiments were performed by Oncotest (Freiburg, Germany).
Tumor fragments were obtained from xenografts in serial passage in nude mice. After removal from donor mice, tumors were cut into fragments (4-5 mm diameter) and placed in PBS (with 10% penicillin/streptomycin) until subcutaneous implantation. Mice under isofluorane anesthesia received unilateral, subcutaneous tumor implants in the flank. Tumors were allowed to grow until the tumor volume was 50-250 mm^3.
The treatment groups were: IgG1-b12, IgG1-b12-vcMMAE, IgG1-AXL-183-vcMMAE and IgG1-AXL-726-vcMMAE. The antibodies and ADCs were dosed intravenously (i.v.) at 4 mg/kg on the day of randomization (day 0) and on day 7. Tumor volumes (mm^3) were monitored twice weekly and were calculated from caliper (PLEXX) measurements as: 0.52×(length)×(width)^2.

MDA-MB-231 tumors = assay: Orthotopic MDA-MB-231-luc D3H2LN breast cancer xenograft model; assay type: in vivo, SCID mice; settings: 4 biweekly doses of 3 mg/kg
Description: The anti-tumor activity of IgG1-AXL-183-vcMMAE and IgG1-AXL-726-vcMMAE was evaluated in an orthotopic MDA-MB-231 D3H2LN xenograft model.
MDA-MB-231-luc D3H2LN Bioware cells (mammary gland adenocarcinoma; Perkin Elmer, Waltham, Mass.) were implanted in the mammary fat pad of 6-11 week old, female SCID (C.B-17/IcrPrkdc-scid/CRL) mice (Charles-River) under isofluorane anesthesia. Tumors were allowed to grow and mice were randomized when tumors reached a volume of ^˜325 mm^3. […] The treatment groups were: IgG1-b12, IgG1-b12-vcMMAE, IgG1-AXL-183-vcMMAE and IgG1-AXL-726-vcMMAE. The animals received a total of 4 biweekly doses of 3 mg/kg antibody or ADC starting at the day of randomization. Tumor volumes (mm^3) were monitored twice weekly and were calculated from caliper (PLEXX) measurements as: 0.52×(length)×(width)^2.

A431 tumors = assay: Therapeutic A431 xenograft model; assay type: in vivo, SCID mice; settings: 3 mg/kg intraperitoneally, model produces high levels of Gas6
Description: (§1) Tumor induction was performed by subcutaneous injection of 5×10^6 A431 or LCLC-103H tumor cells (both obtained from Leibniz-Institut—Deutsche Sammlung von Mikroorganismen and Zellkulturen GmbH (DSMZ)) in 200 μL PBS in the right flank of female SCID mice. Treatment was started 14-21 days after tumor cell inoculation, when the average tumor size was >100-200 mm^3 and distinct tumor growth was observed. Mice received a single injection or a total of 4 biweekly intraperitoneal injections with IgG1-AXL-vcMMAE ADCs or control antibody (unconjugated IgG1-b12), as indicated. Tumor volume was determined at least two times per week. Tumor volumes (mm^3) were calculated from caliper (PLEXX) measurements as: 0.52×(length)×(width)2.

[1] = system: LCLC-103H xenograft tumors; assay: Therapeutic LCLC-103H xenograft model; assay type: in vivo, SCID mice
Description: 5×10^6 LCLC-103H (large cell lung carcinoma) tumor cells (obtained from Leibniz-Institut DSMZ-Deutsche Sammlung von Mikroorganismen and Zellkulturen GmbH (DSMZ)) in 200 μL PBS were injected subcutaneously in the right flank of female SCID mice. Starting 14-21 days after tumor cell inoculation, when the average tumor size was >100-200 mm^3 and distinct tumor growth was observed, a single injection with 1 mg/kg (20 μg/mouse) IgG1-AXL-vcMMAE antibodies (as described in Supplementary Example 1) or control (unconjugated IgG1-b12) was given intraperitoneally (100 μL/mouse). Tumor volume was determined at least two times per week. Tumor volumes (mm^3) were calculated from caliper (PLEXX) measurements as: 0.52×(length)×(width)^2.
as §1

PAXF1657 tumors = assay: PAXF1657 pancreas cancer PDX model; assay type: in vivo, NMRI nu/nu mice
Description: Human pancreas tumor tissue was subcutaneously implanted in the left flank of 5-7 weeks old female NMRI nu/nu mice. […] At day of randomization (day 0), the 3 ADCs were dosed intravenously (i.v.) at either 4 mg/kg or 2 mg/kg, and the control group received a single dose of IgG1-b12 (4 mg/kg). Tumor volumes (mm^3) were monitored twice weekly and were calculated from caliper (PLEXX) measurements as: 0.52×(length)×(width)^2.

MDA-MB231 cells = settings: MDA-MB231 (n = 2), 5 days
A431 cells = settings: A431 (n = 3), 5 days
LCLC-103H cells = settings: 5 days
[2] = Example 13: 3 mg/kg intraperitoneally

CCCS(=O)(=O)Nc1ccc(F)c(C(=O)c2c[nH]c3ncc(Cl)cc23)c1F [PLX4720, N-(3-(5-chloro-1H-pyrrolo[2,3-b]pyridine-3-carbonyl)-2,4-difluorophenyl)propane-1-sulfonamide, reference compound]
sensitivity of the cell line to the substance (SKMEL28R cells): resistant
sensitivity of the cell line to the substance (A375R cells): resistant
sensitivity of the culture to the substance (M019R cells): resistant
sensitivity of the cell line to the substance (SKMEL147 cells): resistant
sensitivity of the cell line to the substance (A875 cells): sensitive
sensitivity of the cell line to the substance (SKMEL28 cells): sensitive
sensitivity of the culture to the substance (M016 cells): resistant
sensitivity of the culture to the substance (M082 cells): resistant

C#Cc1cccc(Nc2ncnc3cc(OCCOC)c(OCCOC)cc23)c1 [erlotinib, reference compound]
sensitivity of the cell line (cell viability) (PC9-ER cells): acquired resistance

B1: IgG1-AXL-183-vcMMAE: IgG1-AXL-183 (FN1-binder) conjugated to vcMMAE (conjugate)
VH: QVQLQQWGAGLLKPSETLSLTCAVYGGSFSGYYWSWIRQPPGKGLEWIGEINQSGSTNYNPSLKSRVTISVDTSKNQFSLKLSSVTAADTSVYYCASGNWDHFFDYWGQGTLVTVSS
VL: DIQMTQSPSSVSASVGDRVTITCRASQGISSWLAWYQHKPGKAPKLLIYATSSLQSGVTSRFSGSGSGTDFTLTISSLQPEDFATYYCQQAKSFPWTFGQGTKVEIK
anti-tumor activity (CEXF 773 tumors): induced tumor regression
anti-tumor activity (MDA-MB-231 tumors): induced tumor regression
anti-tumor activity (A431 tumors): induced growth inhibition
anti-tumor activity [1, 2]: induced tumor regression

B2: IgG1-AXL-148-vcMMAE: IgG1-AXL-148 conjugated at cysteines to vcMMAE (conjugate)
VH: EVQLLESGGGLVQPGGSLRLSCAASGFTFSSYAMTWVRQAPGKGLEWVSAISISGGSTFYADSVKGRFTISRDNSKNTLYLQMNSLRAEDTAVYYCRGYSGYVYDAFDFWGQGTMVTVSS
VL: DIQMTQSPSSLSASVGDRVTITCRASQGISNWLAWYQQKPEKAPKSLIYAASSLQSGVPSRFSGSGSGTDFTLTISSLQPEDFATYYCQQYNSYPLTFGGGTKVEIK
anti-tumor activity (PAXF1657 tumors; 2 mg/kg i.v. at day 0): significantly reduced the growth
anti-tumor activity (PAXF1657 tumors; 4 mg/kg i.v. at day 0): induced tumor regression
anti-tumor activity (PAXF1657 tumors; dose not stated in the sentence (FIG. 10B, 10C)): dose-dependent antitumor activity
Cytotoxicity EC50 Mean (MDA-MB231 cells): 0.012 µg/mL
anti-tumor activity (A431 tumors): induced growth inhibition
anti-tumor activity ([1]; Example 9: single injection 1 mg/kg intraperitoneally): induced tumor regression
anti-tumor activity [1, 2]: induced tumor regression
Cytotoxicity EC50 Mean (A431 cells): 0.070 µg/mL
Cytotoxicity EC50 (LCLC-103H cells): 0.012 µg/mL

B3: IgG1-AXL-726-vcMMAE: IgG1-AXL-726 (FN2-binder) conjugated to vcMMAE (conjugate)
VH: QVQLQQWGAGLLKPSETLSLTCAIDGGSFSGYYWSWIRQPPGKGLEWIGEISHSGRTNYNPSLKSRVTISIDTSKNQFSLKLSSVAAADTAVYYCARFITMIRGAIITHFDYWGQGALVTVSS
VL: B2 VL with N31S, N92H, L96Y, G100Q, V104L
anti-tumor activity (CEXF 773 tumors): induced tumor regression
anti-tumor activity (MDA-MB-231 tumors): induced tumor regression
anti-tumor activity (A431 tumors): induced growth inhibition
anti-tumor activity [1, 2]: induced tumor regression
